Results as given in PMC3914025 (Nature, 2013).

Target: the molecule itself
Experiment: crystal structure

B1: NapA from Thermus thermophilus, triple cysteine mutant (Met20, Val166, Val326 to cysteine) (natural protein)
chain: MHGAEHLLEIFYLLLAAQVCAFIFKRLNQPVVIGEVLAGVLVGPALLGLVHEGEILEFLAELGAVFLLFMVGLETRLKDILAVGKEAFLVAVLGVALPFLGGYLYGLEIGFETLPALFLGTALVATSVGITARVLQELGVLSRPYSRIILGAAVIDDVLGLIVLACVNGVAETGQVEVGAITRLIVLSVVFVGLAVFLSTLIARLPLERLPVGSPLGFALALGVGMAALAASIGLAPIVGAFLGGMLLSEVREKYRLEEPIFAIESFLAPIFFAMVGVRLELSALASPVVLVAGTVVTVIAILGKVLGGFLGALTQGVRSALTVGCGMAPRGEVGLIVAALGLKAGAVNEEEYAIVLFMVVFTTLFAPFALKPLIAWTERERAAKEGSENLYFQ
binding result: binds
